Measurements as given in the supplement of paper PMC9170038.

Test system: MS2 coat protein
Assay: apparent KD of MS2 coat protein; designed switch direction (-1 OFF switch, 1 ON switch): -1; higher = weaker reporter binding
Summary of the method: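 Stalled E. coli RNA polymerase transcribed designed RNA switches on Illumina chips, which were then titrated with SNAP-549-labelled MS2 coat protein, doubling from 0.7 or 1.5 nM to 3 µM. Steps lasted from 0.8–1.5 h at the lowest concentration to 10–20 min at the highest. The apparent KD is each design's median over clusters of curve-fitted normalised fluorescence.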

[1] = Eterna round: R95, input ligand: FMN 200 uM
[2] = Eterna round: R95, input ligand: microRNA oligo, concentration not stated
[3] = Eterna round: R95, input ligand: none
[4] = input ligand: microRNA oligo, concentration not stated

Sequence	apparent KD of MS2 coat protein [1]	apparent KD of MS2 coat protein [2]	apparent KD of MS2 coat protein [3]	apparent KD of MS2 coat protein (input ligand: FMN 200 uM)	apparent KD of MS2 coat protein (input ligand: none)	apparent KD of MS2 coat protein [4]
UUUAAUUUUUUUUUUUUACAAGCUUUUUGCUCGUCUUAUACAUGAGGAUCACCCAUGUGGGUGGAAAAUAAAUUAUC [JMF 92] (puzzle: Sensor v3, turn-off variant 2)	33.9 nM	45 nM	88.4 nM			
UUUAAUUUUUUUUUUUUACAAGCUUUUUGCUCGUCUUAUACAUGAGGAUCACCCAUGUGGGUGGAGGGUAAAUUAUC [JMF 89] (puzzle: Sensor v3, turn-off variant 2)	35.9 nM	63.6 nM	67 nM			
UUUACAAGCUAUUGAUCCCACAUGAGGAUCACCCAUGUUCAUGGCCGUGAGGCUAGGUAUACAAUUGCUCGUCUUAU [mod-JR] (Eterna round: R97, puzzle: Sensor, turn-off variant 1)				59.8 nM	78.7 nM	
UUUACAAGCUUUAGAUCCCACAUGAGGAUCACCCAUGUUGCUGCCGGUGACGGUAGCAUAACUAAUGCUCGUCUUAU [JL TOV1 3.62] (Eterna round: R97, puzzle: Sensor, turn-off variant 1)				123 nM	235 nM	
UUUACAAGCUUUUGAUCCCACAUGAGGAUCACCCAUGUUGCUGCCGUGAGGUAGCAUUUAACAAAUGCUCGUCUUAU [JL TOV1 3.54] (Eterna round: R97, puzzle: Sensor, turn-off variant 1)				404 nM	1380 nM	
UUUAGUUCAGGAUAUGUAGAAAUUAACAUGAGGAUCACCCAUGUCGAUCCUGAAUUAACUACAGAAGGGAACAUUU [Mod of Brourd 6 - Jieux - Exclusion 5] (Eterna round: R97, puzzle: Exclusion 5)				50 nM	14.2 nM	
UUUAGUUCAGGAUAUGUAGAAUUUAACAUGAGGAUCACCCAUGUAGAUCCUGAAUUAACUACAGAAGGGAACAUUU [Exclusion 5: 2:a mod2] (Eterna round: R97, puzzle: Exclusion 5)				69.1 nM	15.2 nM	
UUUAGUUCAGGAUAUGUAGACAUUAACAUGAGGAUCACCCAUGUAGAUCCUGAAUUGACUACAGAAGGGAGCAUUU [Mod of Brourd 9 - Jieux - Exclusion 5] (Eterna round: R97, puzzle: Exclusion 5)				88.9 nM	23.9 nM	
UUUAUAAUAAGAUCAAUUAAUUAACAUGAGGAUCACCCAUGUGAGGAUAUCAGCUCGAUUAGAGCUGAGAAGGCACAAUAUAAG [ExNG3/17-B1] (Eterna round: R96, puzzle: Exclusion NG 3)				79.3 nM	43.3 nM	36.3 nM
UUUAUAAUAAGAUCAAUUAAUUAACAUGAGGAUCACCCAUGUGAGGAUAUCAGCUCGUGUAGAGCUGAGAAGGCACAAUAUAAG [ExNG3/17-B3] (Eterna round: R96, puzzle: Exclusion NG 3)						36.2 nM
UUUAUAAUUUCAAUCUUCGCUGGCGAACUUACGCCAGCCACAUGAGGAUCACCCAUGUUUUUUGUUCGUUUUAUUCU [Gelaoren] (puzzle: Sensor v3, turn-off variant 2)	19.5 nM	66.6 nM	21.1 nM			
UUUAUAUAGUAAGGAUAUGUAUUAUUGUUAUCAACAGAAGGUACUGACAUGAGGAUCACCCAUGUUUUAGUGUGGGCAUGUAGU [JMF's solution 96] (Eterna round: R96, puzzle: Exclusion NG 1)				425 nM	446 nM	277 nM
